According to patent US20070287670A1 (Bristol-Myers Squibb, published 2007):
Where no end group is shown, it is not given here. [ ]: non-standard residue; d: D form. Bip = N[C@@H](Cc1ccc(-c2ccccc2)cc1)C(=O)O

Target: Full-length human glucagon-like peptide 1 receptor (human, UniProt P43220 24-463)
Assay: cell-based or functional assay

Row | Binder | cAMP production (EC50), cAMP cell-based assay in CHO-GLP-1R-19 cells
1 | HAEGTFTSD[Bip][Bip]-NH2 (N-terminus assumed; SMILES C[C@H](NC(=O)[C@@H](N)Cc1c[nH]cn1)C(=O)N[C@@H](CCC(=O)O)C(=O)NCC(=O)N[C@H](C(=O)N[C@@H](Cc1ccccc1)C(=O)N[C@H](C(=O)N[C@@H](CO)C(=O)N[C@@H](CC(=O)O)C(=O)N[C@@H](Cc1ccc(-c2ccccc2)cc1)C(=O)N[C@@H](Cc1ccc(-c2ccccc2)cc1)C(N)=O)[C@@H](C)O)[C@@H](C)O) [GLP-1 11-mer peptide analog His-Ala-Glu-Gly-Thr-Phe-Thr-Ser-Asp-Bip-Bip-NH2] | 1.1 µM
2 | HAEGTFTSD-NH2 | > 1 millimolar
